Laboratory results published in patent US20040191271A1 (Pfizer, published 2004).

Molecular target: the molecule itself
Assay: size exclusion chromatography (Superdex 200), self-association of identical subunits

B1: Streptococcus pneumoniae undecaprenyl pyrophosphate synthase (enzyme)
chain: AVEVEVPTQVPAHIGIIMDGNGRWAKKRMQPRVFGHKAGMEALQTVTKAANKLGVKVITVYAFSTENWTRPDQEVKFIMNLPVEFYDNYVPELHANNVKIQMIGETDRLPKQTFEALTKAEELTKNNTGLILNFALNYGGRAEITQALKLISQDVLDAKINPGDITEELIGNYLFTQHLPKDLRDPDLIIRTSGELRLSNFLPWQGAYSELYFTDTLWPDFDEAALQEAILAYNRRHRRFGGV
notes: Homodimer of two identical subunits; Thrombin removed the tag before size exclusion and crystallization; also called UPS; UppS
- binding result: binds
